T1: Ac-Ala-Ala-Pro-Thr(Man)-Pro-Val-Ala-Ala-Pro-NH2
T1 chain: AAPTPVAAP


Target: T1, Ac-Ala-Ala-Pro-Thr(Man)-Pro-Val-Ala-Ala- …

Row | Protein | Km value [mM] | OMGnT activity (pmol/hr/mg protein) (pmol/hr/mg protein) | OMGnT relative activity (%)
1 | His-Xpress-sOMGnT(S) (protein) SSAEEAECHWADTELNRRRRRFCSKVEGYGSVCSCKDPTPIEFSPDPLPDNKVLNVPVAVIAGNRPNYLYRMLRSLLSAQGVSPQMITVFIDGYYEEPMDVVALFGLRGIQHTPISIKNARVSQHYKASLTATFNLFPEAKFAVVLEEDLDIAVDFFSFLSQSIHLLEEDDSLYCISAWNDQGYEHTAEDPALLYRVETMPGLGWVLRRSLYKEELEPKWPTPEKLWDWDMWMRMPEQRRGRECIIPDVSRSYHFGIVGLNMNGYFHEAYFKKHKFNTVPGVQLRNVDSLKKEAYEVEVHRLLSEAEVLDHSKNPCEDSFLPDTEGHTYVAFIRMEKDDDFTTWTQLAKCLHIWDLDVRGNHRGLWRLFRKKNHFLVVGVPASPYSVKKPPSVTPIFLEPPPKEEGAPGAPEQT | 1.36 | 20 | 100
2 | His-Xpress-sGnT-I (protein) SVSALDGDPASLTREVIRLAQDAEVELERQRGLLQQIGDALSSQRGRVPTAAPPAQPRVPVTPAPAVIPILVIACDRSTVRRCLDKLLHYRPSAELFPIIVSQDCGHEETAQAIASYGSAVTHIRQPDLSSIAVPPDHRKFQGYYKIARHYRWALGQVFRQFRFPAAVVVEDDLEVAPDFFEYFRATYPLLKADPSLWCVSAWNDNGKEQMVDASRPELLYRTDFFPGLGWLLLAELWAELEPKWPKAFWDDWMRRPEQRQGRACIRPEISRTMTFGRKGVSHGQFFDQHLKFIKLNQQFVHFTQLDLSYLQREAYDRDFLARVYGAPQLQVEKVRTNDRKELGEVRVQYTGRDSFKAFAKALGVMDDLKSGVPRAGYRGIVTFQFRGRRVHLAPPLTWEGYDPSWN |  | 0.4 | 

Source: patent publication US20040132130
